Common to all, as to experiment: yeast two-hybrid, liquid β-galactosidase quantification
Test [1] concerns the target cycB2;2 in the GAL4 DNA-binding domain vector (yeast two-hybrid fusion) (Arabidopsis thaliana).
Test [2] has as its target Cdc2a in the GAL4 DNA-binding domain vector (yeast two-hybrid fusion) (Arabidopsis thaliana).
Test [3] concerns the target cycD1;1 in the GAL4 DNA-binding domain vector (yeast two-hybrid fusion) (Arabidopsis thaliana).
The target of test [4] is cycB1;1 in the GAL4 DNA-binding domain vector (yeast two-hybrid fusion) (Arabidopsis thaliana).
Test [5] has as its target cycA2;2 in the GAL4 DNA-binding domain vector (yeast two-hybrid fusion) (Arabidopsis thaliana).
Test [6] has as its target PCNAAt in the GAL4 DNA-binding domain vector (yeast two-hybrid fusion) (Arabidopsis thaliana).
Test [7] deals with cycD2;1 in the GAL4 DNA-binding domain vector (yeast two-hybrid fusion) (Arabidopsis thaliana).
In test [8] the target is cycD3;1 in the GAL4 DNA-binding domain vector (yeast two-hybrid fusion / bait) (Arabidopsis thaliana).
Test [9] has as its target DB-vector alone (GAL4 DNA-binding domain without insert), control (UniProt P04386).
Test [10] addresses ATMAP2 in the GAL4 DNA-binding domain vector (yeast two-hybrid fusion) (Arabidopsis thaliana).
Test [11] concerns the target Cdc2b in the GAL4 DNA-binding domain vector (yeast two-hybrid fusion) (Arabidopsis thaliana).

As for “ICK1 in a GAL4-activation domain vector (yeast two-hybrid fusion) (from UniProt P04386 768-881)”, the Quantification in test [1] came out at 0.05; in test [2] it was 2.65; in test [3], 3.13; in test [4], 0.06; in test [5], 0.03; in [6], 0. Besides, the Quantification in test [7] came to 14.8; in [8] it was 22.7; in test [9], 0; in test [10], 0; in [11] it was 0.

The record behind these values is patent US20010025379A1.
